Experimental data reported in PMC4956616, “Structural Insights into Arl1-Mediated Targeting of the Arf-GEF BIG1 to the trans-Golgi” (Cell Reports, 2016).

T1: His6-tagged BIG2 N-terminal fragment (1–216) (human, UniProt Q9Y6D5 1-216)
T1 construct: human BIG2, UniProt Q9Y6D5, N-terminal fragment, residues 1-216; also called related region from BIG2; source: E. coli BL21-CodonPlus (DE3)-RIPL, purified (Ni-NTA); not shown: His6, N-terminal, kept
T1 sequence (looked up): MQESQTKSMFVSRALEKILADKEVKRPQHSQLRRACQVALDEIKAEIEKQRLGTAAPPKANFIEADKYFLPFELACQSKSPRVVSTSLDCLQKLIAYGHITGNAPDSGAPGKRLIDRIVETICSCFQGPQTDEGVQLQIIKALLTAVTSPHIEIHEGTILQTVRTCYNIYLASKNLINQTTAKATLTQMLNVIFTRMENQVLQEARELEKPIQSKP

T2: His6-DCB^BIG1 (human BIG1 residues 1–228) (human, UniProt Q9Y6D6 1-228)
T2 construct: also called DCB domain; source: E. coli BL21-CodonPlus (DE3)-RIPL, purified (Ni-NTA); not shown: His6, N-terminal, kept
T2 sequence (looked up): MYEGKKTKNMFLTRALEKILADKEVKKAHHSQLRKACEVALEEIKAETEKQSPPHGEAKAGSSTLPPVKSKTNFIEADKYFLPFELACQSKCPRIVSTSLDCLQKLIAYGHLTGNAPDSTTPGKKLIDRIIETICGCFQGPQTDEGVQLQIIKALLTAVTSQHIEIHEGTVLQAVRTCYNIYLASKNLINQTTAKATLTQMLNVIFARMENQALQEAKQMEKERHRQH

B1: His6-DCB^Δ51–71 (human BIG1 residues 1–228 with a deletion of residues 51–71 inclusive) (domain or fragment, UniProt Q9Y6D6 1-228, looked up)
chain: MYEGKKTKNMFLTRALEKILADKEVKKAHHSQLRKACEVALEEIKAETEKTNFIEADKYFLPFELACQSKCPRIVSTSLDCLQKLIAYGHLTGNAPDSTTPGKKLIDRIIETICGCFQGPQTDEGVQLQIIKALLTAVTSQHIEIHEGTVLQAVRTCYNIYLASKNLINQTTAKATLTQMLNVIFARMENQALQEAKQMEKERHRQH
notes: also called DCB^((Δ51–71) BIG1); source: E. coli BL21-(DE3)-RIPL, co-expressed with GST-Arl1^Q71L, purified (glutathione-Sepharose, TEV release, Superdex 75)
B2: MBP-tagged DCB^BIG1 (wild type) (domain or fragment, human, UniProt Q9Y6D6 1-228, looked up)
chain: T2 sequence (looked up)
notes: Expected monomer 69 kDa, measured average 129 kDa; also called MBP-DCB^BIG1; not shown: MBP, N-terminal, kept
B3: GST-Arl1^ΔN14 (human Arl1 residues 15–181), loaded with GMP-PNP or GDP (domain or fragment, UniProt P40616 15-181, looked up)
chain: TREMRILILGLDGAGKTTILYRLQVGEVVTTIPTIGFNVETVTYKNLKFQVWDLGGQTSIRPYWRCYYSNTDAVIYVVDSCDRDRIGISKSELVAMLEEEELRKAILVVFANKQDMEQAMTSSEMANSLGLPALKDRKWQIFKTSATKGTGLDEAMEWLVETLKSRQ
notes: human Arl1, UniProt P40616, residues 15-181 (lacks the N-terminal amphipathic helix, residues 1-14); it was loaded with nucleotide (GMP-PNP or GDP) in vitro; also called Arl1^GTP; GST-Arl1^GMP-PNP; source: E. coli BL21-CodonPlus (DE3)-RIPL, purified (glutathione-Sepharose); not shown: GST, N-terminal, kept

How the values were obtained:
[1] = molecular target: the molecule itself; test: crystal structure; Arl1^Q71L-GTP/Mg2+/DCB^Δ51–71, space group C2, one complex per asymmetric unit, 2.3 Å, molecular replacement
[2] = molecular target: the molecule itself; test: SEC-MALS; MBP-tagged DCB^BIG1 proteins on Superdex-75 HR10/300, 0.5 ml/min, PBS pH 7.5, 150 mM NaCl, 5 mM MgCl2, 0.001% Triton X-100; dimer to monomers
[3] = molecular target: B1; test: pull-down; 2 nM GST-Arl1 loaded with GMP-PNP or GDP mixed with 2 nM His6-tagged protein in 500 μl buffer C (20 mM Tris-HCl, 110 mM KCl, 1 mM DTT, 0.1% Triton X-100) plus 5 mM MgCl2, 4°C 30 min, captured on glutathione-Sepharose; SDS-PAGE, Coomassie; conditions: both partners purified
[4] = molecular target: T1, His6-tagged BIG2 N-terminal fragment …; test: as above; conditions: both partners purified
[5] = molecular target: T2, His6-DCB^BIG1 (human BIG1 residues …); test: as above; conditions: both partners purified

Binder: B1
binding result [1]: binds

Binder: B2
stoichiometry N [2]: 2

Binder: B3
binding result [3]: binds | binding result [4]: binds | binding result [5]: binds
